± gives the standard deviation of the averaged measurements.
Legend:
Saccharomyces cerevisiae [1] = test: protein stability index of tFT-peptide fusion (C-terminal peptide) (PSI (0-1 scale)); higher = more stable (slower turnover); details: genetic background: wild type; temperature: 30 C
Saccharomyces cerevisiae [2] = test: as above
Method: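 MPS profiling in S. cerevisiae of the tFT-X12 degron library: putative degron peptides plus stable controls, 12 aa, fused to the C-terminus of a sfGFP-mCherry timer. Cells are FACS-sorted into 8 mCherry/sfGFP bins and deep-sequenced. PSI runs from 0 (unstable) to 1 (stable). Backgrounds are wild type, das1Δ and doa10Δ at 30 °C, and wild type, das1Δ, cdc34-1 and cdc53-1 at 37 °C; 2-3 technical replicates each.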

[3] = genetic background: cdc34-1, temperature: 37 C
[4] = genetic background: cdc53-1, temperature: 37 C
[5] = genetic background: das1 deletion, temperature: 30 C
[6] = genetic background: das1 deletion, temperature: 37 C
[7] = genetic background: doa10 deletion, temperature: 30 C
[8] = genetic background: wild type, temperature: 30 C
[9] = genetic background: wild type, temperature: 37 C
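Also: PSI is a weighted mean of sequencing reads over stability bins, variants kept only with over 10 reads, mCherry proximal and sfGFP distal, peptide attached via GGGS linker.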

| Sequence | protein stability index (Saccharomyces cerevisiae [1]) | protein stability index (Saccharomyces cerevisiae [2]; [3]) | protein stability index (Saccharomyces cerevisiae [2]; [4]) | protein stability index (Saccharomyces cerevisiae [2]; [5]) | protein stability index (Saccharomyces cerevisiae [2]; [6]) | protein stability index (Saccharomyces cerevisiae [2]; [7]) | protein stability index (Saccharomyces cerevisiae [2]; [8]) | protein stability index (Saccharomyces cerevisiae [2]; [9]) |
| --- | --- | --- | --- | --- | --- | --- | --- | --- |
| FCASCLVCFIYL | 0.462 ± 0.023 | 0.492 ± 0.0074 | 0.501 ± 0.0053 | 0.426 ± 0.024 | 0.5207 ± 0.0051 | 0.444 ± 0.026 | 0.421 ± 0.031 | 0.517 ± 0.019 |
| FCCWCVCFGYSG | 0.443 ± 0.0049 | 0.575 ± 0.093 | 0.604 ± 0.013 | 0.395 ± 0.019 | 0.582 ± 0.0089 | 0.372 ± 0.02 | 0.394 ± 0.025 | 0.549 ± 0.007 |
| FCFCLVLRVFLG | 0.253 ± 0.034 | 0.118 ± 0.0026 | 0.171 ± 0.011 | 0.154 ± 0.03 | 0.272 ± 0.0093 | 0.172 ± 0.011 | 0.162 ± 0.024 | 0.222 ± 0.014 |
| FCFFSMGFVLAL | 0.453 ± 0.072 | 0.3489 ± 0.00089 | 0.365 ± 0.0065 | 0.334 ± 0.0061 | 0.45 ± 0.017 | 0.289 ± 0.0053 | 0.314 ± 0.017 | 0.422 ± 0.026 |
| FCIIVFYIFVGI | 0.382 ± 0.041 | 0.451 ± 0.061 | 0.506 ± 0.078 | 0.342 ± 0.027 | 0.48 ± 0.077 | 0.323 ± 0.024 | 0.333 ± 0.022 | 0.486 ± 0.042 |
| FCLMLWGAVLFL | 0.314 ± 0.025 | 0.216 ± 0.014 | 0.29 ± 0.0077 | 0.235 ± 0.019 | 0.364 ± 0.047 | 0.226 ± 0.015 | 0.223 ± 0.03 | 0.33 ± 0.0042 |
| FCVLLFFFPLII | 0.363 ± 0.024 | 0.272 ± 0.012 | 0.293 ± 0.04 | 0.271 ± 0.029 | 0.402 ± 0.0046 | 0.376 ± 0.037 | 0.261 ± 0.015 | 0.374 ± 0.012 |
| FEVLINIWFLSA | 0.262 ± 0.019 | 0.272 ± 0.028 | 0.388 ± 0.026 | 0.3 ± 0.042 | 0.422 ± 0.0066 | 0.185 ± 0.011 | 0.19 ± 0.018 | 0.324 ± 0.013 |
| FGGVFCVMARLV | – | 0.602 ± 0.14 | 0.685 ± 0.016 | 0.629 ± 0.034 | 0.689 ± 0.01 | 0.318 ± 0.0054 | 0.356 ± 0.025 | 0.506 ± 0.0059 |
| GGGGGGRWGRLC | – | 0.634 ± 0.047 | 0.752 ± 0.031 | 0.66 ± 0.019 | 0.7572 ± 0.0018 | 0.189 ± 0.0036 | 0.232 ± 0.018 | 0.478 ± 0.0099 |
| IRRWGRCRVRCM | – | 0.584 ± 0.029 | 0.655 ± 0.034 | 0.428 ± 0.037 | 0.616 ± 0.018 | 0.255 ± 0.0087 | 0.288 ± 0.028 | 0.52896 ± 2.4e-05 |
| LIVFSGFLFLLS | – | 0.442 ± 0.01 | 0.53 ± 0.049 | 0.373 ± 0.031 | 0.5639 ± 0.0056 | 0.3758 ± 0.0014 | 0.364 ± 0.023 | 0.5096 ± 0.0027 |
| PVPERTSATEPP | – | 0.61 ± 0.052 | 0.667 ± 0.029 | 0.617 ± 0.038 | 0.6671 ± 0.006 | 0.634 ± 0.0083 | 0.627 ± 0.019 | 0.655 ± 0.0013 |
| RLLLLPGPLALQ | – | 0.634 ± 0.022 | 0.73 ± 0.034 | 0.67 ± 0.022 | 0.7 ± 0.016 | 0.685 ± 0.054 | 0.673 ± 0.021 | 0.714 ± 0.062 |
| RRAVGLANFTIK | – | 0.705 ± 0.016 | 0.773 ± 0.035 | 0.678 ± 0.062 | 0.693 ± 0.028 | 0.639 ± 0.06 | 0.671 ± 0.019 | 0.706 ± 0.022 |
| VLICFSVFSWVV | – | 0.0264 ± 0.00023 | 0.0313 ± 0.00079 | 0.0368 ± 0.01 | 0.0531 ± 0.0097 | 0.0228 ± 0.0066 | 0.0178 ± 0.0049 | 0.0371 ± 0.0086 |
| VPPGCSLFAFIL | – | 0.7246 ± 0.005 | 0.75537 ± 0.00043 | 0.644 ± 0.025 | 0.7794 ± 0.005 | 0.555 ± 0.032 | 0.547 ± 0.019 | 0.73 ± 0.01 |
| YRLRAFLSMTQQ | 0.616 ± 0.01 | – | – | – | – | – | – | – |

| Sequence | protein stability index (Saccharomyces cerevisiae [1]) | protein stability index (Saccharomyces cerevisiae [2]; [3]) | protein stability index (Saccharomyces cerevisiae [2]; [4]) | protein stability index (Saccharomyces cerevisiae [2]; [5]) | protein stability index (Saccharomyces cerevisiae [2]; [6]) | protein stability index (Saccharomyces cerevisiae [2]; [7]) | protein stability index (Saccharomyces cerevisiae [2]; [8]) | protein stability index (Saccharomyces cerevisiae [2]; [9]) |
| --- | --- | --- | --- | --- | --- | --- | --- | --- |
| YRRDVGAARVLP | 0.67 ± 0.021 | – | – | – | – | – | – | – |
| YRTSLSMANHLL | 0.611 ± 0.069 | – | – | – | – | – | – | – |
| YSAPFRIPLSLR | 0.631 ± 0.034 | – | – | – | – | – | – | – |
| YSCDEDPVTVRG | 0.699 ± 0.036 | – | – | – | – | – | – | – |
| YTPSGHKRRMYV | 0.642 ± 0.064 | – | – | – | – | – | – | – |
| YTPSPHVRAPRH | 0.737 ± 0.025 | – | – | – | – | – | – | – |
| YTPVKDNDVKVY | 0.722 ± 0.077 | – | – | – | – | – | – | – |
| YTRAGNDKIFWE | 0.809 ± 0.0096 | – | – | – | – | – | – | – |
| YTRGVENTDMAP | 0.768 ± 0.022 | – | – | – | – | – | – | – |
| YTYPINPLDQTR | 0.7196 ± 0.0027 | – | – | – | – | – | – | – |
| YVCLATLSSFSF | 0.644 ± 0.048 | – | – | – | – | – | – | – |
| YVCRCGCLVKSV | 0.656 ± 0.043 | – | – | – | – | – | – | – |
| YVEVLLFTSVGF | 0.569 ± 0.07 | – | – | – | – | – | – | – |
| YVIAMVYGAPWS | 0.60667 ± 0.00018 | – | – | – | – | – | – | – |
| YVKSIRRRDYIW | 0.694 ± 0.0046 | – | – | – | – | – | – | – |
| YWGGWWGGWEIG | 0.689 ± 0.014 | – | – | – | – | – | – | – |
| YYIITRWPNTTR | 0.847 ± 0.2 | – | – | – | – | – | – | – |
| YYLQPTCLCFWE | 0.698 ± 0.0041 | – | – | – | – | – | – | – |

Source: the supplement of paper PMC10724198
